According to the supplement of paper PMC7877785:
± gives the uncertainty stated by the source.

Test: self-splicing fitness, log relative to wild type (ln ratio); higher = more splicing; Tetrahymena group I intron in knt gene, E. coli kanamycin selection, DiMSum; sequences stand for … in CUCUCU…GGAGGGAAAAGUUAUCAGGCAUGCACCUGGUAGCUAGUCUUUAAACCAAUAGAUUGCAUCGGUUUAAAAGGCAAGACCGUCAAAUUGCGGGAAAGGGGUCAACAGCCGUUCAGUACCAAGUCUCAGGGGAAACUUUGAGAUGGCCUUGCAAAGGGUAUGGUAAUAAGCUGACGGACAUGGUCCUAACCACGCAGCCAAGUCCUAAGUCAACAGAUCUUCUGUUGAUAUGGAUGCAGUUCACAGACUAAAUGUCGGUCGGGGAAGAUGUAUUCUUCUCAUAAGAUAUAGUCGGACCUCUCCUUAAUGGGAGCUAGCGGAUGAAGUGAUGCAACACUGGAGCCGCUGGGAACUAAUUUGUAUGCGAAAGUAUAUUGAUUAGUUUUGGAGUACUCGUGGUCG
In short: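 Pooled colonies went to amplicon sequencing on an Illumina HiSeq 2500 after six replicate transformations. The plates were LB agar with 100 μg/mL carbenicillin, 50 μM IPTG and 0.2% rhamnose, with or without 25 μg/mL kanamycin, incubated overnight at 37°C or 30°C. The E. coli BL21(DE3) library had all eight P1ex-region intron nucleotides randomised, the intron placed in the knt kanamycin-resistance gene on pET-22b(+). DiMSum fitness is the error-weighted combination of replicate fold changes, kanamycin against none, normalised to wild type.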

Row | Sequence | self-splicing fitness (ln) (30 °C) | self-splicing fitness (ln) (37 °C)
1 | AGCAAGCAAUAUUACGCUCU | -3 ± 0.22 | -1.57 ± 0.17
2 | ACGAAGCAAUAUUACGAGAG | -3.39 ± 0.28 | -2.53 ± 0.22
3 | GUAUAGCAAUAUUACGUGUA | -1.79 ± 0.2 | -1.92 ± 0.18
4 | AAAAAGCAAUAUUACGUCAG | -2.75 ± 0.15 | -1.14 ± 0.13
5 | GGACAGCAAUAUUACGCUUG | -1.45 ± 0.094 | -0.762 ± 0.11
6 | AUUCAGCAAUAUUACGCGGC | -3.26 ± 0.22 | -2.43 ± 0.22
7 | GUCAAGCAAUAUUACGAAUU | -3.06 ± 0.18 | -1.82 ± 0.17
8 | ACAAAGCAAUAUUACGGUAG | -3.48 ± 0.16 | -3.21 ± 0.24
9 | UGCUAGCAAUAUUACGAGAG | -2.79 ± 0.22 | -2.13 ± 0.23
10 | UUGGAGCAAUAUUACGUAGA | -3.22 ± 0.27 | -1.77 ± 0.18
11 | CCAAAGCAAUAUUACGCGUU | -3.79 ± 0.12 | -2.89 ± 0.16
12 | ACUAAGCAAUAUUACGAACG | -1.1 ± 0.1 | -0.438 ± 0.15
13 | ACAGAGCAAUAUUACGAAAC | -2.71 ± 0.29 | –
14 | CAAGAGCAAUAUUACGAAAG | -1.52 ± 0.12 | -1.64 ± 0.16
15 | UAUGAGCAAUAUUACGACAU | -3.523 ± 0.029 | -2.56 ± 0.042
16 | UCCUAGCAAUAUUACGCACA | -2.29 ± 0.22 | -1.45 ± 0.21
17 | CGCGAGCAAUAUUACGGUCC | -3.29 ± 0.4 | -2.12 ± 0.44
18 | CAUGAGCAAUAUUACGAGAA | -0.549 ± 0.29 | –
19 | CCUAAGCAAUAUUACGCUCC | -4.01 ± 0.46 | -2.97 ± 0.29
20 | CAGAAGCAAUAUUACGAAGG | -1.23 ± 0.12 | -1.1 ± 0.16
21 | CCGCAGCAAUAUUACGGCAG | -1.4 ± 0.081 | 0.0999 ± 0.098
22 | CACGAGCAAUAUUACGAUCU | – | -1.99 ± 0.27
23 | GCCAAGCAAUAUUACGCUUU | -0.998 ± 0.051 | -1.18 ± 0.072
24 | CUUCAGCAAUAUUACGAACU | -3.9 ± 0.37 | -1.75 ± 0.27
25 | UCUUAGCAAUAUUACGCUGU | -3.65 ± 0.37 | -1.45 ± 0.26

Row | Sequence | self-splicing fitness (ln) (30 °C) | self-splicing fitness (ln) (37 °C)
26 | UUGUAGCAAUAUUACGCAGA | -2.2 ± 0.35 | -0.763 ± 0.28
27 | CCGCAGCAAUAUUACGCAAU | -3.95 ± 0.18 | -3.67 ± 0.27
28 | UAGAAGCAAUAUUACGUCGU | -1.75 ± 0.097 | -0.904 ± 0.1
29 | GAAAAGCAAUAUUACGGGAU | -2.18 ± 0.14 | -1.26 ± 0.12
30 | CCCCAGCAAUAUUACGCUCA | -3.21 ± 0.24 | -0.421 ± 0.17
31 | AGUUAGCAAUAUUACGUCGC | -2.96 ± 0.39 | -0.924 ± 0.18
32 | UCUGAGCAAUAUUACGGGGG | -3.29 ± 0.36 | -2.49 ± 0.25
33 | GACAAGCAAUAUUACGUAGU | -3.92 ± 0.18 | -1.65 ± 0.11
34 | CCAUAGCAAUAUUACGGGUC | -3.41 ± 0.35 | -2.23 ± 0.23
35 | CCUGAGCAAUAUUACGUUCG | -3.43 ± 0.26 | -2.87 ± 0.38
36 | GCGUAGCAAUAUUACGUGAG | -2.75 ± 0.17 | -2.67 ± 0.17
37 | CGCCAGCAAUAUUACGAAAG | -0.802 ± 0.054 | 0.0641 ± 0.081
38 | ACUCAGCAAUAUUACGAGGU | -3.47 ± 0.18 | -1.68 ± 0.17
39 | UGUAAGCAAUAUUACGGUCG | 0.275 ± 0.081 | -0.0342 ± 0.098
40 | AGCGAGCAAUAUUACGCGCA | -0.891 ± 0.23 | -0.546 ± 0.2
41 | GGUUAGCAAUAUUACGAUCG | -0.314 ± 0.14 | -0.207 ± 0.27
42 | GUGGAGCAAUAUUACGAGCA | -2.49 ± 0.34 | -1.93 ± 0.39
43 | GACAAGCAAUAUUACGCAAU | -3.08 ± 0.15 | -1.58 ± 0.12
44 | GUCGAGCAAUAUUACGACAG | -2.66 ± 0.23 | -1.75 ± 0.28
45 | CCCGAGCAAUAUUACGGCGA | -2.7 ± 0.2 | -1.19 ± 0.12
46 | CAAUAGCAAUAUUACGAGGU | -4.24 ± 0.28 | -1.93 ± 0.21
47 | UGGGAGCAAUAUUACGAGCA | -1.28 ± 0.18 | -0.71 ± 0.18
48 | CCUCAGCAAUAUUACGGGGU | -3.88 ± 0.15 | -3.49 ± 0.2
49 | UCUUAGCAAUAUUACGAGCU | -3.09 ± 0.34 | -1.01 ± 0.26
